From patent publication US20230295310A1 (ABCELLERA BIOLOGICS, published 2023)

Experiments:
[1] = target: T1, human CD3 expressed on cells (Jurkat cells; human primary T cells) (human, UniProt P07766 23-207; P04234 22-171; P09693 23-182); test: flow cytometry, Jurkat cells
T1 construct: whole, on cells
Protocol: Purified antibodies were confirmed to bind CD3 expressed on cells using the CytoFLEX S or LX flow cytometers (Beckman Coulter). Antibodies were diluted to 25 nM in FACS buffer (PBS+2% FBS) and were incubated with CD3-expressing cells for 30 minutes at 4° C. […] The median fluorescence intensity of the binding signal for each antibody was normalized to the isotype control to obtain a fold over isotype value. An antibody with a fold over isotype (FOI) of ≥10 was considered to be positive for binding.

[2] = target: T2, cynomolgus monkey CD3 expressed on cyno primary T cells (cynomolgus monkey, UniProt Q95LI5 22-198; Q95LI8 22-171; Q95LI7 23-181); test: flow cytometry, cyno primary T cells
T2 construct: whole, on cells; CD3 complex on purified cynomolgus monkey CD3 pan T cells; also called cyno CD3
How it was run: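 Binding reported as fold over isotype: median fluorescence intensity divided by isotype control, with ≥10 scored positive. Cells were exposed to 25 nM antibody in PBS/2% FBS, 30 min, 4 °C, before flow cytometric read-out.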

T1 sequence (P07766 23-207, chain 1 of 3): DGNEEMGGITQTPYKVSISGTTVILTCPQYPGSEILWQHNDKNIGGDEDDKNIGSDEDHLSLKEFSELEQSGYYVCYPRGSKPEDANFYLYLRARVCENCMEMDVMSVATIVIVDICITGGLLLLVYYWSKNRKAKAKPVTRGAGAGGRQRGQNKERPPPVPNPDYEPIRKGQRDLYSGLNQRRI
T1 sequence (P04234 22-171, chain 2 of 3): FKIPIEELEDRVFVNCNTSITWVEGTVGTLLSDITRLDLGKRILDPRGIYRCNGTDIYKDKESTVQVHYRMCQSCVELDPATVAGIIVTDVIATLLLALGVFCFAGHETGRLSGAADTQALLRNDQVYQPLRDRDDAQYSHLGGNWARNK
T1 sequence (P09693 23-182, chain 3 of 3): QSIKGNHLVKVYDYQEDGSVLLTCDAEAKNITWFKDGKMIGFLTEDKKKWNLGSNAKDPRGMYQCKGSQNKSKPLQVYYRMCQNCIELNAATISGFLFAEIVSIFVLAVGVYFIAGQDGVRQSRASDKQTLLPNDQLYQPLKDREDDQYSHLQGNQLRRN
T2 sequence (Q95LI5 22-198, chain 1 of 3): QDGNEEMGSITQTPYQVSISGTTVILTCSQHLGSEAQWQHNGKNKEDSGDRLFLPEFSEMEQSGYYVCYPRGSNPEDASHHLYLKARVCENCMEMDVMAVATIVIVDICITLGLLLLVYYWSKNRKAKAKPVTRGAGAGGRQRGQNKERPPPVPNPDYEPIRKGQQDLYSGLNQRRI
T2 sequence (Q95LI8 22-171, chain 2 of 3): as the sequence (P04234 22-171, chain 2 of 3) above, with I5V, N15K, I20V, S32T, D33N, I34N, T64A, S74N, V83L, H141R counted along it
T2 sequence (Q95LI7 23-181, chain 3 of 3): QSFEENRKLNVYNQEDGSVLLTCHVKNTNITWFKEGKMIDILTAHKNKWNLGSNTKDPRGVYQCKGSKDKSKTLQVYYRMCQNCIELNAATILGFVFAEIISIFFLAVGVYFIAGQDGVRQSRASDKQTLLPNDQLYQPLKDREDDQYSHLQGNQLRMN

Binder | binding result [1] | binding result [2]
mAb 268 (antibody, V domains shown, VH/VL only) VH: QVQLVQSGSEVKKPGASVKVSCKASGYTFTGYYIHWVRQAPGQGLEWMGWINPNSGRTNYAQNFQGRVTMTRDTSITTAHMELTRLTSDDTAVYYCARLELLVFDYWGQGTLVTVSS VL: DIQMTQSPSSLSASVGDRVTITCRASQTIYNYLNWYQQKPGKAPQVLIYAASNLQSGVPSIFSGSGSGTDFTLTITNLQPEDFATYYCQQTYSIPFTFGGGTKVEIK | no binding (tested: FOI <10 (FOI >=10 = positive); 25 nM) | no binding (tested: FOI <10 (FOI >=10 = positive); 25 nM)
mAb 269 (antibody, V domains shown, VH/VL only) VH: QVQLVQSGSEVKKPGASVKVSCKASGYTFTGYYIHWVRQAPGQGLEWMGWINPNSGRTNYAQNFQGRVTMTRDTSITTAHMELTRLTSDDTAVYYCARLELLVFDYWGQGTLVTVSS VL: not shown | no binding (tested: FOI <10 (FOI >=10 = positive); 25 nM) | no binding (tested: FOI <10 (FOI >=10 = positive); 25 nM)
mAb 279 (antibody, V domains shown, VH/VL only) VH: QVQLVQSGAEVKKPGASVKVSCKASGYTFTGYYMHWVRQAPGQGLEWMGWIYPNSGRTNYAQKFQGRVTMTRDTSISTAYMELTRLISDDTAVYYCARLWDLYFDYWGQGTLVTVSS VL: not shown | no binding (tested: FOI <10 (FOI >=10 = positive); 25 nM) | no binding (tested: FOI <10 (FOI >=10 = positive); 25 nM)
mAb 274 (antibody, V domains shown, VH/VL only) VH: QVQLVQSGAEVKKPGASVRVSCKASGYTFTGYYMHWVRQAPGQGLEWMGWIYPNSGRTNYAQKFQGRVTMTRDTSISTAYMELTRLISDDTAVYYCARLWDLYFDYWGQGTLVTVSS VL: DIQLTQSPSFLSASVGDRVTITCRASQGISSYLAWYQQKPGKAPKLLIYAASTLQSGVPSRFSGSGSGTEFTLTISSLQPEDFATYYCQQLNSYPWTFGQGTKVEIK | no binding (tested: FOI <10 (FOI >=10 = positive); 25 nM) | no binding (tested: FOI <10 (FOI >=10 = positive); 25 nM)
mAb 280 (antibody, V domains shown, VH/VL only) VH: QVQLVQSGAEVKKPGASVRVSCKASGYTFTGYYMHWVRQAPGQGLEWMGWIYPNSGRTNYAQKFQGRVTMTRDTSISTAYMELTRLISDDTAVYYCARLWDLYFDYWGQGTLVTVSS VL: not shown | no binding (tested: FOI <10 (FOI >=10 = positive); 25 nM) | no binding (tested: FOI <10 (FOI >=10 = positive); 25 nM)
mAb 277 (antibody, V domains shown, VH/VL only) VH: QVQLVQSGAAMKKPGASVKVSCKASGSTFTGYYLHWVRQAPGQGLEWMGWIYLNSGRTKYAQKFQGRVTMTRDTSINTAHMELSRLTFDDTAVYYCVRVLELIFDYWGQGTLVTVSS VL: DIQLTQSPSFLSASVGDRVTITCRASQGISSYLAWYQQKPGKAPKLLIYAASTLQSGVPSRFSGSGSGTEFTLTISSLQPEDFATYYCQQLNSYPWTFGQGTKVEIK | no binding (tested: FOI <10 (FOI >=10 = positive); 25 nM) | no binding (tested: FOI <10 (FOI >=10 = positive); 25 nM)
mAb 183 (antibody, V domains shown, VH/VL only) VH: QVQLVQSGAEVKKPGASVRVSCKSSGYTFTGYYIHWVRQAPGQGLEWMGWINPKSGRTSYAEKFQGSITMTRDTSINTAYMELTKLRSDDTAVYYCERMGELLLFDYWGQGTLVTVSS VL: not shown | no binding (tested: FOI <10 (FOI >=10 = positive); 25 nM) | no binding (tested: FOI <10 (FOI >=10 = positive); 25 nM)
mAb 185 (antibody, V domains shown, VH/VL only) VH: QVQLVQSGSEVKKPGASVRVSCKASGYIFTGYHIHWVRQAPGQGLEWMGWINPKSGRTSYAQNFQARVTMTRDTSINTIHMELSRLRSDDTAIYYCMRVGEQLLFDFWGQGTLVTVSS VL: not shown | no binding (tested: FOI <10 (FOI >=10 = positive); 25 nM) | no binding (tested: FOI <10 (FOI >=10 = positive); 25 nM)
mAb 253 (antibody, V domains shown, VH/VL only) VH: QVTLKESGPVLVKPTETLTLTCTVSGFSLSNARMGVSWIRQPPGKALEWLTLIFSIDEKSYSTSLKSRLTISQDTSKSQVVLTVTNMDPVDTVTYFCERIETGPYYYYYYMDVWGKGTTVTVSS VL: not shown | no binding (tested: FOI <10 (FOI >=10 = positive); 25 nM) | no binding (tested: FOI <10 (FOI >=10 = positive); 25 nM)
mAb 254 (antibody, V domains shown, VH/VL only) VH: QVTLKESGPVLVKPTETLTLTCTVSGFSLSNSRMGVSWLRQPPGKALEWLIFIFSIDEKSYSTSLKSRLTISQDTSKSQVVLTMTNMDPVDTVTYFCERIETGPYYYYYYMDVWGKGTTVTVSS VL: not shown | no binding (tested: FOI <10 (FOI >=10 = positive); 25 nM) | no binding (tested: FOI <10 (FOI >=10 = positive); 25 nM)
mAb 182 (antibody, V domains shown, VH/VL only) VH: QVQLVQSGAGMKKPGASVRVSCKASGYNFIDYHIHWVRQAPGQGLEWMGWINPKSGRTMSAQKFQGRVTMTRDTSITAAYMELNRLRSDDSAIYYCARVTQLVFDHWGQGTLVTVSL VL: not shown | no binding (tested: FOI <10 (FOI >=10 = positive); 25 nM) | no binding (tested: FOI <10 (FOI >=10 = positive); 25 nM)
mAb 184 (antibody, V domains shown, VH/VL only) VH: QVQLVESGGGVVQPGRSLRLSCAASGFTFSDYGMHWVRQAPGKGLEWVSVIWSDGLNKYYKDSVKGRFTISRDNSKNTLYLQMNSLRAADTAVYYCARLYSGSHYHYFMDVWGKGTSVTVSS VL: DILLTQSPSFLSASVGDRVTITCRASQDISSSLAWYQQKPKKAPDLLIYTASTLQSGVPSRFSGRGSGTEFTLTISNLQPEDFATYYCQQLKNYPITFGQGTRLEIK | no binding (tested: FOI <10 (FOI >=10 = positive); 25 nM) | no binding (tested: FOI <10 (FOI >=10 = positive); 25 nM)
mAb 275 (antibody, V domains shown, VH/VL only) VH: QVQLVQSGSELKKPGASVKVSCKASGYTFTKYAMNWVRQAPGQGLEWMGWINTNTGNPTYAQGFTGRFVFSLDASVTTAYLQISSLKAEDTAVYYCAREGHYDFWGGFYYFDYWGQGTLVTVSS VL: EIMLTQSPATLSLSPGERGTLSCRASQSVSSYLAWYQQKPGQAPRLVIYDVSNRATGIPARFSGSGSGTDFILTIGSLEPEDFAVYYCQQRSNWPLTFGGGTKVEIK | no binding (tested: FOI <10 (FOI >=10 = positive); 25 nM) | no binding (tested: FOI <10 (FOI >=10 = positive); 25 nM)
mAb 278 (antibody, V domains shown) VH: QVQLVQSGAAMKKPGASVKVSCKASGSTFTGYYLHWVRQAPGQGLEWMGWIYLNSGRTKYAQKFQGRVTMTRDTSISTAHMELSRLTFDDTAVYYCARVLELIFDYWGQGTLVTVSS VL: not shown | no binding (tested: FOI <10 (FOI >=10 = positive); 25 nM) | no binding (tested: FOI <10 (FOI >=10 = positive); 25 nM)
mAb 187 (antibody, V domains shown, VH/VL only) VH: EVQLLESGGGLVQPGGSLRLSCAASGFTFSSYAMNWVRQAPGKGLEWVSAISSSGGRTYYADSVKGRFTISRDNSKNTLYLQMNSLRAEDTAVYYCAKDSTSHPYMDVWGKGTTVTVSS VL: AIQMTQSPSSLSASVGDRVTITCRASQGIRNDLGWYQQQPGKAPKLLIYDASSLQSGVPSRFSGSGSGTVFTLTISSLQPEDFATYFCLQDYNYPFTFGPGTKVDIK | no binding (tested: FOI <10 (FOI >=10 = positive); 25 nM) | no binding (tested: FOI <10 (FOI >=10 = positive); 25 nM)
